Assay results: the supplement of paper PMC11780869

System: Bacillus subtilis
Assay: cleaved RNA product abundance (RNA/gDNA barcode ratio) relative to median wild-type variant (ratio to wild type); higher = more accumulation of the downstream cleavage product
Settings: cleavage site: cggR-gapA (positions -7 to +36 mutated)
Outline: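 Oligos with a 9% error rate were used to build barcoded, mutagenized RNase Y cleavage-site windows within truncated aprE or tetM reporter mRNAs, which were integrated into the B. subtilis chromosome. Cultures were grown in LB at 37°C between OD600 0.0003 and 0.3. Cleaved RNA was gel-selected, reverse transcribed and barcode-sequenced, as were genomic DNA barcodes, and UMIs were collapsed. Cleaved product abundance is the scaled RNA:gDNA barcode ratio, with the median construct carrying the unmutated site as reference.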

[1] = experiment (reporter, strain, medium): exp 2b: truncated aprE reporter, strain BJT200
[2] = experiment (reporter, strain, medium): exp 4a: truncated aprE reporter, strain BJT201 with 2% xylose (RNase J1 expressed)

| Sequence | cleaved RNA product abundance [1] | cleaved RNA product abundance [2] |
| --- | --- | --- |
| ACAGACGAAGGAGCCGCAAAGAAGTTATGAAGGGATGAATTATCCCTCAATATAAATATCTCTCACTTATTTAAA | 0.232 | 0.343 |
| ACAGACGAAGGAGCCGCAAAGAAGTTATGAAGGGATGCATAATCCCTCAATATAAATATCTCTCACTTATTTAAA | – | 0.542 |
| ACAGACGAAGGAGCCGCAAAGAAGTTATGAAGGGATGTATAATCCCTCAATATAAATATCTCTCACTTATTTAAA | – | 0.311 |
| ACAGACGAAGGAGCCGCAAAGAAGTTATGAAGGGATTAATAATCCCTCAATATAAATATCTCTCACTTATTTAAA | 0.402 | 0.476 |
| ACAGACGAAGGAGCCGCAAAGAAGTTATGAAGGTATGAATAATCCCTCAATATAAATATCTCTCACTTATTTAAA | 0.113 | 0.0823 |
| ACAGACGAAGGAGCCGCAAAGAAGTTATGAAGTGATGAATAATCCCTCAATATAAATATCTCTCACTTATTTAAA | 0.0796 | 0.0812 |
| ACAGACGAAGGAGCCGCAAAGAAGTTATGAATGGATGAATAATCCCTCAATATAAATATCTCTCACTTATTTAAA | – | 0.147 |
| ACAGACGAAGGAGCCGCAAAGAAGTTATGACGGGATGAATAATCCCTCAATATAAATATCTCTCACTTATTTAAA | – | 0.844 |
| ACAGACGAAGGAGCCGCAAAGAAGTTATTAAAAGATGAATAATCCCTCAATATAAATATCTCTCACTTATTTAAA | 0.107 | 0.0921 |
| ACAGACGAAGGAGCCGCAAAGAAGTTATTAAAAGATTAATAATCCCTCAATATAAATATCTCTCACTTATTTAAA | 0.104 | – |
| ACAGACGAAGGAGCCGCAAAGAAGTTATTAAACGATGAATAATCCCTCAATATAAATATCTCTCACTTATTTAAA | 0.0904 | 0.109 |
| ACAGACGAAGGAGCCGCAAAGAAGTTATTAAACGATGAATAATCTCTCAATATAAATATCTCTCACTTATTTAAA | 0.109 | 0.179 |
| ACAGACGAAGGAGCCGCAAAGAAGTTATTAAAGAATGAATAATACCTCAATATAAATATCTCTCACTTATTTAAA | – | 0.159 |
| ACAGACGAAGGAGCCGCAAAGAAGTTATTAAAGAATGAATAATCCCTCAATATAAATATCTCTCACTTATTTAAA | 0.0737 | 0.114 |
| ACAGACGAAGGAGCCGCAAAGAAGTTATTAAAGCATGAATAATCCCTCAATATAAATATCTCTCACTTATTTAAA | 0.119 | 0.11 |
| ACAGACGAAGGAGCCGCAAAGAAGTTATTAAAGCATTAATAATCCCTCAATATAAATATCTCTCACTTATTTAAA | – | 0.134 |
| ACAGACGAAGGAGCCGCAAAGAAGTTATTAAAGGAAGAATAATCCCTCAATATAAATATCTCTCACTTATTTAAA | 0.0711 | 0.112 |
| ACAGACGAAGGAGCCGCAAAGAAGTTATTAAAGGACGAATAATCCCTCAATATAAATATCTCTCACTTATTTAAA | – | 0.103 |
| ACAGACGAAGGAGCCGCAAAGAAGTTATTAAAGGAGGAATAATCCCTCAATATAAATATCTCTCACTTATTTAAA | – | 0.25 |
| ACAGACGAAGGAGCCGCAAAGAAGTTATTAAAGGATAAATAAACCCTCAATATAAATATCTCTCACTTATTTAAA | – | 0.128 |
| ACAGACGAAGGAGCCGCAAAGAAGTTATTAAAGGATAAATAATCCCTCAATATAAATATCTCTCACTTATTTAAA | 0.108 | 0.139 |
| ACAGACGAAGGAGCCGCAAAGAAGTTATTAAAGGATAAATAATCTCTCAATATAAATATCTCTCACTTATTTAAA | – | 0.112 |
| ACAGACGAAGGAGCCGCAAAGAAGTTATTAAAGGATCAATAATCCCTCAATATAAATATCTCTCACTTATTTAAA | – | 0.115 |
| ACAGACGAAGGAGCCGCAAAGAAGTTATTAAAGGATGAAAAATCCCTCAATATAAATATCTCTCACTTATTTAAA | 0.104 | 0.183 |
